According to patent publication US20130315910A1:
Blank lines part the entries; values can stand above or below the substance they belong to.

Columns and labels:
Experiment in all cases: SPR
[1] = biological target: cynoFcγRIIb (Macaca fascicularis)
mFcγRIIb (Mus musculus) = mFcγRIIb (Mus musculus) (UniProt P08101)
[2] = biological target: human FcγRI receptor protein (R&D Systems) (human) (UniProt P12314)
[3] = biological target: human FcγRIIa (131H), His- and GST-tagged (human) (UniProt P12318)
[4] = biological target: human FcγRIIa (131R), His- and GST-tagged (human) (UniProt P12318)
[5] = biological target: human FcγRIIb receptor protein (R&D Systems) (human) (UniProt P31994)
mFcγRIV = biological target: T1, mFcγRIV
T1 sequence: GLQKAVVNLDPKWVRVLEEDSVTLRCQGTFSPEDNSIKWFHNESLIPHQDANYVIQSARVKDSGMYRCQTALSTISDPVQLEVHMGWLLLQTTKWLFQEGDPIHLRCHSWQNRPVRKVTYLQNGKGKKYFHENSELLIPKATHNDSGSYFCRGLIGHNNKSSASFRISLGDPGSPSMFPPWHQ

human FcγRIIb receptor protein (R&D Systems) (human), sequence (P31994 46-217 limits assumed): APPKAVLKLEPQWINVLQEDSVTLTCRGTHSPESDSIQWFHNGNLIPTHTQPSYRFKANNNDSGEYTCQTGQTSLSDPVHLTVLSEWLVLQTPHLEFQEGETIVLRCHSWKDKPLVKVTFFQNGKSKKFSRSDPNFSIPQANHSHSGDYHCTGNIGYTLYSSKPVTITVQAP
human FcγRIIa (131R), His- and GST-tagged (human), sequence (P12318 34-217 H167R): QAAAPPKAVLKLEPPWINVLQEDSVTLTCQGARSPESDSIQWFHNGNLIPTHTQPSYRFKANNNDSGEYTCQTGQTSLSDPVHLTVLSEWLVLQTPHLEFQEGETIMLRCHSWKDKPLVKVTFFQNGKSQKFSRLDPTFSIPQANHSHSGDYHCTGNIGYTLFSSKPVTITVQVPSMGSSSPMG
human FcγRI receptor protein (R&D Systems) (human), sequence (P12314 16-288 limits assumed): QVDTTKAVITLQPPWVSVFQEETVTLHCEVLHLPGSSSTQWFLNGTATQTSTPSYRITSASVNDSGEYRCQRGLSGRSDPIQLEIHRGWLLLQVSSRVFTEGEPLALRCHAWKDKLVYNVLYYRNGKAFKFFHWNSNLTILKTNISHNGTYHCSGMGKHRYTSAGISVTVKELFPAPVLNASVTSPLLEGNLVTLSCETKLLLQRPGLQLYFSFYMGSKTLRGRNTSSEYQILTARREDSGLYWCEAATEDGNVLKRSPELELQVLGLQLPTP
human FcγRIIa (131H), His- and GST-tagged (human), sequence (P12318 34-217): as the sequence (P12318 34-217 H167R) above, with R134H counted along it
mFcγRIIb (Mus musculus), sequence (P08101 30-210): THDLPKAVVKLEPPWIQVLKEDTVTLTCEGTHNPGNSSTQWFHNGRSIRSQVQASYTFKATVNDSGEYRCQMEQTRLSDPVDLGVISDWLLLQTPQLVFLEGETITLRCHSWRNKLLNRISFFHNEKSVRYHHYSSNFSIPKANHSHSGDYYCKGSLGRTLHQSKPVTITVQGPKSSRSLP

Fold vs WT IgG1 (off-rate) [1]: 0 fold | Fold vs WT IgG1 (off-rate) (mFcγRIIb (Mus musculus)): 0 fold
Substance: S267D/A327D (antibody)

Fold vs WT IgG1 [2]: 2.35 fold | Kd [2]: 0.14 nM | Fold vs WT IgG1 [3]: 0.993 fold | Kd [3]: 651 nM | Fold vs WT IgG1 [4]: 269 fold | Kd [4]: 3.19 nM | Fold vs WT IgG1 [5]: 221 fold | Kd [5]: 6.63 nM
Substance: anti-CD19 antibody IgG1/2 ELLGG S267E/L328F

Fold vs WT IgG1 (off-rate) (mFcγRIV): 1.23 fold
Substance: V266M (antibody)

Fold vs WT IgG1 (Kd) (mFcγRIV): 0.026 fold
Substance: S267E/L328Y (antibody)
